Sequences and labels used below:
T1: EsCas13d, nuclease-dead (Eubacterium siraeum, UniProt B0MS50, R295A;H300A;R849A;H854A)
T1 sequence: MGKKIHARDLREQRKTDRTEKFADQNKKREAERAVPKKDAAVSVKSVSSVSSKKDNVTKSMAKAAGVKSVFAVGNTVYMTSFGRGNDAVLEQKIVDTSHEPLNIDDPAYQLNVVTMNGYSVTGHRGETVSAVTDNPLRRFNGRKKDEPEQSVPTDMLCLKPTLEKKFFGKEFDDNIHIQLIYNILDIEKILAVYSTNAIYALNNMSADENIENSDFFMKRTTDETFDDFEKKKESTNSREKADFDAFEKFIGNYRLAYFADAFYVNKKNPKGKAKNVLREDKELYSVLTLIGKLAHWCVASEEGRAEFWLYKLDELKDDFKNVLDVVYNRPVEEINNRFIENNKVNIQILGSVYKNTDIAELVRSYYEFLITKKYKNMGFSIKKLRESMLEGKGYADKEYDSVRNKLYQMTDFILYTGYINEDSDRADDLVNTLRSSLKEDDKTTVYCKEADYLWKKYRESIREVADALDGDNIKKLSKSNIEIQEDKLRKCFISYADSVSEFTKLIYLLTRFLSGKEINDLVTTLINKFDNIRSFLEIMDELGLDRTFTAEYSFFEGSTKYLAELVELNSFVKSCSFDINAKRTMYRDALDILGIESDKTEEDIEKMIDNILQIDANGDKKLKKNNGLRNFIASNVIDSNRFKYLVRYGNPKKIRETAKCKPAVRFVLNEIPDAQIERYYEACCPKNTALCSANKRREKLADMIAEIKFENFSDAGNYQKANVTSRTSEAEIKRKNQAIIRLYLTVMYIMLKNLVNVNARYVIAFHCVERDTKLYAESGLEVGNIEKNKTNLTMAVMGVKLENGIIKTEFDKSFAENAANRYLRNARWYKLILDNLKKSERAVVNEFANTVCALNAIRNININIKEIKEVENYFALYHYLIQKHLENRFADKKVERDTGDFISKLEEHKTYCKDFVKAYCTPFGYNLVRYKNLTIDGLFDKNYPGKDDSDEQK

B1: target 1 MT 5'PFS UUG 3'PFS CAC (mixed)
RNA 1: CACCCGUGCAAAAAUGCAGGGGUCUAAAACUGAGCGGAUAACCUCUCUAUGG
RNA 2: GGGAAUGGAUCCACAUCUACGAAUUCUUGCCAUAGAGAGGUUAUCCGCUCACACAGAUCGGAAGAGCACACGU
B2: target 1 A9U,C21U (mixed)
RNA 1: B1 RNA 1
RNA 2: B1 RNA 2 with U27G, G29A, C31U, A43U, A53C, C54G
B3: target 1 MT 5'PFS AAG 3'PFS CAC (mixed)
RNA 1: B1 RNA 1
RNA 2: B1 RNA 2 with U27A, U28A
B4: target 1 C6A,C22U (mixed)
RNA 1: B1 RNA 1
RNA 2: B1 RNA 2 with U27G, G29A, C30U, C46A, A53C, C54G
B5: target 1 MT 5'PFS GCC 3'PFS AUC (mixed)
RNA 1: B1 RNA 1
RNA 2: B1 RNA 2 with U27G, U28C, G29C, C52A, A53U
B6: target 1 MT 5'PFS AAG 3'PFS CAU (mixed)
RNA 1: B1 RNA 1
RNA 2: B1 RNA 2 with U27A, U28A, C54U
B7: target 1 MT 5'PFS GUG 3'PFS GGU (mixed)
RNA 1: B1 RNA 1
RNA 2: B1 RNA 2 with U27G, C52G, A53G, C54U
B8: target 1 MT 5'PFS AGA 3'PFS UGA (mixed)
RNA 1: B1 RNA 1
RNA 2: B1 RNA 2 with U27A, U28G, G29A, C52U, A53G, C54A
B9: target 1 MT 5'PFS GCC 3'PFS AUG (mixed)
RNA 1: B1 RNA 1
RNA 2: B1 RNA 2 with U27G, U28C, G29C, C52A, A53U, C54G
B10: target 1 MT 5'PFS GUC 3'PFS CUC (mixed)
RNA 1: B1 RNA 1
RNA 2: B1 RNA 2 with U27G, G29C, A53U
B11: target 1 MT 5'PFS GCC 3'PFS AUU (mixed)
RNA 1: B1 RNA 1
RNA 2: B1 RNA 2 with U27G, U28C, G29C, C52A, A53U, C54U
B12: target 1 MT 5'PFS AAG 3'PFS CAG (mixed)
RNA 1: B1 RNA 1
RNA 2: B1 RNA 2 with U27A, U28A, C54G
B13: target 1 MT 5'PFS AGA 3'PFS UGU (mixed)
RNA 1: B1 RNA 1
RNA 2: B1 RNA 2 with U27A, U28G, G29A, C52U, A53G, C54U
B14: target 1 MT 5'PFS CUU 3'PFS CAC (mixed)
RNA 1: B1 RNA 1
RNA 2: B1 RNA 2 with U27C, G29U
B15: target 1 MT 5'PFS GUG 3'PFS GGG (mixed)
RNA 1: B1 RNA 1
RNA 2: B1 RNA 2 with U27G, C52G, A53G, C54G
B16: target 1 MT 5'PFS AAU 3'PFS UAU (mixed)
RNA 1: B1 RNA 1
RNA 2: B1 RNA 2 with U27A, U28A, G29U, C52U, C54U
B17: target 1 MT 5'PFS AGA 3'PFS UGC (mixed)
RNA 1: B1 RNA 1
RNA 2: B1 RNA 2 with U27A, U28G, G29A, C52U, A53G
B18: target 1 MT 5'PFS UUG 3'PFS CAA (mixed)
RNA 1: B1 RNA 1
RNA 2: B1 RNA 2 with C54A
B19: target 1 MT 5'PFS CAU 3'PFS CCG (mixed)
RNA 1: B1 RNA 1
RNA 2: B1 RNA 2 with U27C, U28A, G29U, A53C, C54G
B20: target 1 MT 5'PFS ACA 3'PFS AGA (mixed)
RNA 1: B1 RNA 1
RNA 2: B1 RNA 2 with U27A, U28C, G29A, C52A, A53G, C54A
B21: target 1 MT 5'PFS GUC 3'PFS CUG (mixed)
RNA 1: B1 RNA 1
RNA 2: B1 RNA 2 with U27G, G29C, A53U, C54G
B22: target 1 MT 5'PFS AAG 3'PFS CAA (mixed)
RNA 1: B1 RNA 1
RNA 2: B1 RNA 2 with U27A, U28A, C54A
B23: target 1 MT 5'PFS CAG 3'PFS CCC (mixed)
RNA 1: B1 RNA 1
RNA 2: B1 RNA 2 with U27C, U28A, A53C
B24: target 1 MT 5'PFS GCA 3'PFS AAU (mixed)
RNA 1: B1 RNA 1
RNA 2: B1 RNA 2 with U27G, U28C, G29A, C52A, C54U
B25: target 1 C4U,U8G (mixed)
RNA 1: B1 RNA 1
RNA 2: B1 RNA 2 with U27G, G29A, U44G, C48U, A53C, C54G
B26: target 1 MT 5'PFS GCA 3'PFS AAC (mixed)
RNA 1: B1 RNA 1
RNA 2: B1 RNA 2 with U27G, U28C, G29A, C52A
B27: target 1 MT 5'PFS GUC 3'PFS CUU (mixed)
RNA 1: B1 RNA 1
RNA 2: B1 RNA 2 with U27G, G29C, A53U, C54U
B28: target 1 MT 5'PFS GCC 3'PFS AUA (mixed)
RNA 1: B1 RNA 1
RNA 2: B1 RNA 2 with U27G, U28C, G29C, C52A, A53U, C54A
B29: target 1 MT 5'PFS GUC 3'PFS CUA (mixed)
RNA 1: B1 RNA 1
RNA 2: B1 RNA 2 with U27G, G29C, A53U, C54A
B30: target 1 MT 5'PFS AAU 3'PFS UAG (mixed)
RNA 1: B1 RNA 1
RNA 2: B1 RNA 2 with U27A, U28A, G29U, C52U, C54G
B31: target 1 MT 5'PFS GUA 3'PFS GUA (mixed)
RNA 1: B1 RNA 1
RNA 2: B1 RNA 2 with U27G, G29A, C52G, A53U, C54A
B32: target 1 MT 5'PFS CCG 3'PFS AUA (mixed)
RNA 1: B1 RNA 1
RNA 2: B1 RNA 2 with U27C, U28C, C52A, A53U, C54A
B33: target 1 A1C,G17C (mixed)
RNA 1: B1 RNA 1
RNA 2: B1 RNA 2 with U27G, G29A, G35C, A51C, A53C, C54G
B34: target 1 MT 5'PFS GCA 3'PFS AAG (mixed)
RNA 1: B1 RNA 1
RNA 2: B1 RNA 2 with U27G, U28C, G29A, C52A, C54G
B35: target 1 MT 5'PFS CUA 3'PFS CCG (mixed)
RNA 1: B1 RNA 1
RNA 2: B1 RNA 2 with U27C, G29A, A53C, C54G
B36: target 1 MT 5'PFS GUG 3'PFS GGC (mixed)
RNA 1: B1 RNA 1
RNA 2: B1 RNA 2 with U27G, C52G, A53G
B37: target 1 MT 5'PFS GCA 3'PFS AAA (mixed)
RNA 1: B1 RNA 1
RNA 2: B1 RNA 2 with U27G, U28C, G29A, C52A, C54A
B38: target 1 insA 3' of 17,insA 3' of 6 (mixed)
RNA 1: B1 RNA 1
RNA 2: GGGAAUGGAUCCACAUCUACGAAUUCGUACCAUAGAAGAGGUUAUCCAGCUCACCGAGAUCGGAAGAGCACACGU

The term Kd denotes the equilibrium constant for the complex coming apart. A high value points to lower affinity.

Where a chain is given by its changes, count along the chain named. Names may count otherwise.

This data set concerns the target T1, EsCas13d, nuclease-dead. Description: crRNA (strand 1, pre-loaded); Mg2+; 40 mM Tris-HCl pH 7.5, 150 mM NaCl, 6 mM MgCl2, 1 mM DTT, 0.1% Tween-20, 0.2 mg/ml BSA; 25 C; 10 min per concentration, then washed. The note with it: tags: His6-TwinStrep-SUMO cleaved; N-terminal SNAP kept (SNAP-Surface 488); label: 3' end held by stalled T7 RNA polymerase.
Consider B1, for which the Kd is roughly 85 nM.
Regarding B2, the dissociation constant (Kd) is 8.7 ± 0.8 nM.
With B3 the figure was roughly 50.5 nM.
Take B4: the affinity, expressed as Kd, was 11.6 ± 0.7 nM.
The same measure for B5: 32 ± 11 nM.
In turn, B6 came in with an equilibrium dissociation constant (Kd) of 23 ± 10.5 nM.
In the case of B7, the Kd was 25.6 ± 2.7 nM.
B8: the Kd is 90 ± 40 nM.
In turn, B9 yielded a Kd of 16.5 ± 6 nM.
Regarding B10, the Kd amounted to 39.5 ± 12.5 nM.
For B11, binding was put at a Kd of 16.9 ± 4.1 nM.
B12 showed a Kd of roughly 37.5 nM.
As for B13, the dissociation constant Kd was 110 ± 50 nM.
Consider B14, for which the dissociation constant (Kd) came out at 47 ± 19 nM.
The same measure for B15: 32.9 ± 2.9 nM; for B16: 72 ± 27 nM; for B17: roughly 53.5 nM.
With B18 the figure was roughly 55 nM; with B19, 23 ± 8.5 nM; with B20, 66.5 ± 24 nM.
Turning to B21, the Kd was found to be 12.8 ± 2.9 nM.
In the case of B22, the Kd stood at 59 ± 29.5 nM.
In the case of B23, the Kd was roughly 49 nM.
In the case of B24, the Kd stood at 41.5 ± 10 nM.
In turn, B25 displayed an equilibrium dissociation constant (Kd) of 14.1 ± 0.8 nM.
With B26 the figure was 24 ± 6 nM; with B27, 13.8 ± 2.6 nM; with B28, 13.8 ± 2.4 nM.
The molecule B29 showed a Kd of 17.5 ± 4 nM.
B30: the dissociation constant (Kd) was 41.5 ± 20 nM.
The molecule B31 gave a Kd of 12.1 ± 1.5 nM. Against the preceding molecule, the Kd is about 3.4-fold lower.
In turn, B32 showed an equilibrium dissociation constant (Kd) of 5.1 ± 1.45 nM.
On to B33, for which the Kd came out at 54 ± 15 nM.
B34: the dissociation constant (Kd) was found to be 32.5 ± 8 nM.
B35 returned a Kd of 5.05 ± 1.7 nM.
With B36 the figure was 14 ± 2.25 nM.
For B37, binding was characterised by a dissociation constant (Kd) of 31.5 ± 7.5 nM.
The molecule B38 displayed a dissociation constant Kd of 18.3 ± 1.4 nM.

For the origin of these results see paper PMC10786891, “Massively parallel profiling of RNA-targeting CRISPR-Cas13d”.
